Measurements taken from US20210148907A1 (NATIONAL GUARD HEALTH AFFAIRS, published 2021).

Columns and labels:
[1] = biological target: Death-associated protein 3 (DAP3) (human, UniProt P51398 22-398); assay: co-immunoprecipitation with affi-gel-bound anti-Flag antibody from transfected HeLa cells; Western blot with anti-DAP3
Protocol: Briefly, equal numbers of HeLa cells were transfected with a control vector or Flag-epitope tagged N-terminus domain of BCL10 (aa. 1-97), C-terminus domain (aa. 104-233) or the full length BCL10. After 48 h of incubation, equal extracts (200 μg) from the transfected cells were incubated with a 50 μL of affi-gel-bound anti-Flag antibody. […] The expression of the Flag-BCL10 protein variants in the extracts (IB) was also assessed. β-actin was used as a loading control to ensure equal protein loading.

[2] = biological target: T1, human serum albumin (AffiGel 10-bound, HSA Column) (human, UniProt P02768 25-609); assay: AffiGel-HSA control column loaded with the HeLa S100 >800 kDa fraction; tandem mass spectrometry of the eluate
T1 construct: also called HSA control column

[3] = biological target: T1, human serum albumin (AffiGel 10-bound, …); assay: Western blot of the eluate of the HSA control column with specific primary antibodies

B1: Flag-epitope tagged N-terminus domain of BCL10 (aa. 1-97) (other, not shown: small tags and cut ends)
chain: MEPTAPSLTEEDLTEVKKDALENLRVYLCEKIIAERHFDHLRAKKILSREDTEEISCRTSSRKRAGKLLDYLQENPKGLDTLVESIRREKTQNFLIQ
notes: Expressed in transfected HeLa cells; also called amino terminal CARD domain (aa 1-97); CARD (N-terminus) domain of BCL10
B1: no binding [1].

B2: Phosphatase of Regenerative Liver (PRL1/protein tyrosine phosphatase PTP4A1) (enzyme)
chain: MARMNRPAPVEVTYKNMRFLITHNPTNATLNKFIEELKKYGVTTIVRVCEATYDTTLVEKEGIHVLDWPFDDGAPPSNQIVDDWLSLVKIKFREEPGCCIAVHCVAGLGRAPVLVALALIEGGMKYEDAVQFIRQKRRGAFNSKQLLYLEKYRPKMRLRFKDSNGHRNNC
notes: Endogenous protein of HeLa cells; also called PRL1/PTP4A1
B2: no binding [2].

B3: Insulin-like growth factor II (IGF-II) messenger RNA (mRNA)-binding protein-3 (IMP3) (other, UniProt O00425 1-579, looked up)
chain: MNKLYIGNLSENAAPSDLESIFKDAKIPVSGPFLVKTGYAFVDCPDESWALKAIEALSGKIELHGKPIEVEHSVPKRQRIRKLQIRNIPPHLQWEVLDSLLVQYGVVESCEQVNTDSETAVVNVTYSSKDQARQALDKLNGFQLENFTLKVAYIPDEMAAQQNPLQQPRGRRGLGQRGSSRQGSPGSVSKQKPCDLPLRLLVPTQFVGAIIGKEGATIRNITKQTQSKIDVHRKENAGAAEKSITILSTPEGTSAACKSILEIMHKEAQDIKFTEEIPLKILAHNNFVGRLIGKEGRNLKKIEQDTDTKITISPLQELTLYNPERTITVKGNVETCAKAEEEIMKKIRESYENDIASMNLQAHLIPGLNLNALGLFPPTSGMPPPTSGPPSAMTPPYPQFEQSETETVHLFIPALSVGAIIGKQGQHIKQLSRFAGASIKIAPAEAPDAKVRMVIITGPPEAQFKAQGRIYGKIKEENFVSPKEEVKLEAHIRVPSFAAGRVIGKGGKTVNELQNLSSAEVVVPRDQTPDENDQVVVKITGHFYACQVAQRKIQEILTQVKQHQQQKALQSGPPQSRRK
notes: Endogenous protein of HeLa cells; It describes the protein as IGF2BP3 with a mass of 63705 Da and also lists NP_006538; also called IMAP3; IGF2BP3
B3: no binding [3].
